# Reference: paper PMC3575510, “Antibiotic Inducibility of the mexXY Multidrug Efflux Operon of Pseudomonas aeruginosa: Involvement of the MexZ Anti-Repressor ArmZ” (PLoS ONE, 2013)
# Molecular target: T1, MexZ (LexA DNA-binding domain fusion encoded by pSF004, pMS604::mexZ) (P. aeruginosa, UniProt G3XCU9 1-210)
# T1 construct: also called repressor of mexXY; mexZ product; source: E. coli SU202, bacterial two-hybrid fusion expressed from pSF004 (pMS604::mexZ)
# T1 sequence: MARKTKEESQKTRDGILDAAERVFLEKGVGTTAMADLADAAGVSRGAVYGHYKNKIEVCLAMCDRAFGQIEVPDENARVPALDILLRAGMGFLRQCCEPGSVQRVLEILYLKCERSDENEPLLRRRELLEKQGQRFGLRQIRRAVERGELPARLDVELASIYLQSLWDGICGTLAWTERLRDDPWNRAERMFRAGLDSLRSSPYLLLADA
# Assay: two-hybrid; bacterial LexA-based two-hybrid in E. coli SU202 (pMS604 and pDP804 derivatives); cells grown to mid-log phase in L-broth with 5 mM IPTG; interaction represses lacZ, read as reduced β-galactosidase activity
# Settings: partners not purified
binder,measurement,value
"ArmZ (PA5471) wild type (LexA DNA-binding domain fusion encoded by pSF005, pDP804::armZ) (natural protein, also called anti-repressor MexZ; ArmZ (WT); source: E. coli SU202, bacterial two-hybrid fusion expressed from pSF005 (pDP804::armZ)) MGNYIKPLSAGVALIASDSTWIEGKAIQQLQTTAELDGMCRVVGLPDLHPGRGYPVGAAFFSVGRFYPALVGNDIGCGMALWETGLALGKLSADKLEKRLGNLDLPLDETWSDCIEALDLPAREHWRALGTIGGGNHFAELQQVETVFDQAALHALGLDADRLQLLVHSGSRGLGQAILQEHVSLHGHAGLLDGSLEASAYLARHADALRFAEGNRQLIARRILERLRCDGLELLDINHNLVVPAQVDGVDGWLHRKGATPADQGVLVIPGSRGDYSYLVEPVPSAQSLFSLAHGAGRKWQRGECRERLAARFSVDQLGRTRLGSRVICGDRQLIYEEAPEAYKGIDSVVGALLEAGLLRLVARLKPVLTYKTRGECCR",fold reduction of β-galactosidase activity (relative to SU202 carrying the mexZ plasmid only),3 fold
